The record followed here is US20240409617A1.

Positions count from the first letter of the chain named.

B1: Ab_17 scFv-Fc (scFv, V domains shown)
VH: QVQLVQSGGGVVQPGRSLRLSCAASGFTFDDYAMHWVRQVPGKGLEWVSGIDWNSGVIGYADSVKGRFTISRDNVKNSLYLQMNSLRTEDSALYYCAKDIGPGGSGSYYAFDIWGQGTTVTVSS
VL: QSALTQPASVSGSPGQSITISCTGTSSDVGGSKYVSWYQQHPGKAPKVMIYDVTKRPSGVPDRFSGSKSGNTASLTISGLQAEDEADYYCAAWDDSLNGVVFGGGTKLTVL
B2: Ab_21 scFv-Fc (scFv, V domains shown)
VH: QVQLVQSGGGLVQPGGSLRLSCATSGFTFDDYAMHWVRQAPGKGLEWVSGISWNSGSIGYVDSVKGRFTISRDNRNNKVYLQMNNLRAEDTAVYYCARDWWGSIDHWGLGTLVTVSS
VL: QSALTQPRSVSGSPGQSVTISCTGTSSDVGGYDYVSWYQQHPGKAPKLIIYDVSKRPSGVPDRFSGSKSGNTASLTVSGLQAEDEADYYCSSYTSSSPVVFGGGTKLTVL
B3: S1-R3-T1-C4 (Ab_8) scFv-Fc (scFv, V domains shown)
VH: QVQLVQSGAEVKKPGSSVKVSCKASGGTFSSYAISWLRQAPGQGLEWMGWINPNSGGTNYAQKFQGRVTMTRDTSISTAYMELSRLRSDDTAVYYCARGSGGYYLGWGQGTLVTVSS
VL: QPGLTQPPSVSKGLRQTATLTCTGNSNNVGNQGAAWLQQHQGHPPKLLSYMNNNRPPGISERFSASRSGNTASLTITGLQPEDEADYYCSAWDSSLSRWVFGGGTKLSVL
B4: Ab_19 scFv-Fc (scFv, V domains shown)
VH: EVQLVESGAEVKKPGESLKISCKGSGYSFTSYWIGWVRQMPGKGLEWMGIIYPGDSDTRYSPSFQGQVTISADKSISTAYLQWSSLKASDTAMYYCARRGDLDAFDIWGQGTMVTVSS
VL: QPGLTQPPAASGTPGQRVTVSCSGASANIGSNAVSWFKQFPETAPRLLISGNTHRPSGVPDRVSGSKSGTSASLTISGLQSDDEADYYCAAWDDSLNGYVFGSGTKVTVL
B5: Ab_23 scFv-Fc (scFv, V domains shown)
VH: EVQLVQSGAEVKKPGSSVKVSCRSSGGTFSTYGITWVRQAPGQGLEWMGRIIPSLGIPNYAQKFQGRVTITADTSVSTAWMELSSLESDDTAIYYCARENIDLATNDFWGQGTLVTVSS
VL: QSALTQPPSASGSPGQSVTISCTGTSRDIGAYGYVSWYQQVPGKAPKLIIYEVRNRPSGVSSRFSGSKSGNTASLTISGLQAEDEADYYCSSYTSSSTLDVVFGGGTKLTVL
B6: Ab_26 scFv-Fc (scFv, V domains shown)
VH: QVQLVQSGGGLVQPGRSLRLSCAASGFTFDDYAMHWVRQVPGKGLEWVSGIDWNSGVIGYADSVKGRFTISRDNAKNSLYLQMNSLRAEDTALYYCAKDAYSYGFLGAFDIWGQGTMVTVSS
VL: LPVLTQPPSVSVAPGQTASITCGGDNIRTKGVHWYQQKPGQAPLLVIYYASDRPSGIPERFSGSSSGNTATLTISRVEAGDEADYYCQVWDSSSDLVVFGGGTTLTVL
B7: Ab_18 scFv-Fc (scFv, V domains shown)
VH: EVQLVQSGGGVVQPGRSLRVSCAASGFSFSRYGMHWVRQAPGKGLEWVAFIRHDGSKKYYADSVEGRFTISRDNSRNTVSLEMNSLRGEDTAVYYCAKDGRLEAALDDWGQGTLVTVSS
VL: NFMLTQPHSMSGSAGKTVTVSCIRSSGSIANNFVQWYQQRPGSAPTTVIYEDNQRPSGVPDRFSGSIDSSSNSASLTISGLKTEDEADYYCQSYDSSNLVFGGGTRLTVL
B8: Ab_14 scFv-Fc (scFv, V domains shown)
VH: QVQLQQSGPGLVKPSQTLSLTCAISGDSVSSNSAAWNWIRQSPARGLEWLGRTYYRSRWYNDYAISMKSRITINPDTSKNQFSLQLESVTPEDTAVYYCAREIRGFDYWGQGTLVTVSS
VL: QSVLTQPPSASGSPGQSVTISCTGTSSDVGAYNFVSWYQHHPGKAPKLIIYDFNKRPSGVPDRFSGSKSGNTASLTVSGLQADDEADYYCSSYAGSNNFDVVFGGGTKLTVL
B9: S1-RBD-R3-T1-F5 (Ab2-7) scFv-Fc (scFv, V domains shown)
VH: QVTLKESGPTRVKPTQTLTLTCTFSGFSLSTTGVGVGWIRQPPGKALEWLALIYWNDDKRYSPSLKSRLTITKDTSKNQVVLTMTNMDPVDTATYYCARISGSGYFYPFDIWGQGTTVTVSS
VL: NFMLTQPHSVSESPGKTVTISCTRSSGSIASNYVQWYQQRPGSSPTTVIYEDNQRPSGVPDRFSGSIDSSSNSASLTISGLKAEDEADYYCQSYDSSSLWVFGGGTKLTVL
B10: Ab_25 scFv-Fc (scFv, V domains shown)
VH: QVQLVQSGGGLVQPGGSLRLSCAASGFTFSSYWMSWVRQAPGKGLEWVANIKQDGSEKYYVDSVKGRFTISRDNAKNSLYLQMNSLRAEDTAVYYCARGFYYYGAFDIWGQGTTVTVSS
VL: B9 VL with R24G, S44A, D68G, A83T, S98N, L99H
B11: Ab_20 scFv-Fc (scFv, V domains shown)
VH: QVQLVQSGGGSVKPGGSLRLSCAASGYRLSDYYMHWVRQAPGKGLEWVANIKQDGSEKYYVDSVKGRFTISRDNAKNSLYLQMNSLRAEDTAVYYCARVRGWSRGYFDYWGQGTLVTVSS
VL: B9 VL with R24G, S44A, T77L, A83T, S98N, L99H
B12: Ab_28 scFv-Fc (scFv, V domains shown)
VH: QVTLKESGPGLVNPSETLSLTCTVSGASISNSFWSWIRQSPGKGLEWIGYTSYSGNSIYNPSLKSRLTMSIDTSKNQLSLNLRSLTAADTAVYYCARREWIKGHFDYWGQGTLVTVSS
VL: B9 VL with R24G, S26G, S44A, A83T, S98N, L99P, W100V
B13: Ab_13 scFv-Fc (scFv, V domains shown)
VH: B9 VH with T10K, R11L, T32S, N56D, T72A, N78Y, T117M, S122A
VL: B9 VL with S44A, A83T, S98N
B14: Ab_27 scFv-Fc (scFv, V domains shown)
VH: QVQLVQSGTEVKKPGASVKVSCKASGYSFTGSHLHWVRQAPGQGLEWMGWINPDSGVINYAQKFQGRVTLTRDTSISTAYMELSGLRSDDTAVYYCARDKAIGYVWALDYWGQGTLVTVSS
VL: QSALTQPPSVSGSPGQSVTISCTGTSSDVGTYNRVSWYQQPPGKAPKLMIYEVSNRPSGVSNRFSGSKSGNTASLTISGLQAEDEADYYCSSYTRTFTYVFGTGTKVTVL
B15: Ab_16 scFv-Fc (scFv, V domains shown)
VH: QVQLVQSGGGVVQPGRSLRLSCAASGFTFSNYGMHWVRQAPGKGLEWVALIWERGSKKDYADSVKGRFTVSRDNSKNTLYLQMNSLRPEDTAVYFCAREGISMTGAEYFQHWGQGTLVTVSS
VL: QSVLTQPPSVSGSPGQRVTMSCTGSSSNIGAGYDVHWYQQVPGAAPRLLIYGTNNRPSGVPDRFSGSKSGTSASLTITGLQAEDEADYYCQSYDNSLTDPYVFGTGTKVTVL

The target of the first experiment is B.1.351 Spike (SARS-CoV2).
In general, Kd refers to the equilibrium constant for the complex coming apart. Higher therefore signals lower affinity. With B1, the Kd came to 562 pM and the Response turned out to be 0.199.
In the same order, the values of B2 are 369 pM and 0.148.
B3 returned a Kd of 1090 pM and a Response of 0.0872.
In turn, B4 gave an equilibrium dissociation constant (Kd) of 11.8 pM and a Response of 0.258.
The matching figures for B5: 7.58 pM and 0.189.
The matching figures for B6: 1.78 pM and 0.214.
In the same order, the values of B7 are 1340 pM and 0.12.
The molecule B8 displayed a dissociation constant (Kd) of 3.1 pM and a Response of 0.253.
The matching figures for B9: 360 pM and 0.13.
B10 yielded a dissociation constant Kd of 1.13 pM and a Response of 0.0577.
B11 yielded a Kd of 7.03 pM and a Response of 0.213.
In the same order, the values of B12 are 6.38 pM and 0.12.
The matching figures for B13: 735 pM and 0.103.
In turn, B14 gave a Kd of 1.25 pM and a Response of 0.0974.
B15 came in with a Kd below 1 pM and a Response of 0.405.

The target of another experiment is B.1.1.7 Spike (SARS-CoV2).
Regarding B1, the dissociation constant Kd is 1.85 pM and the Response stood at 0.331.
The matching figures for B2: 1.47 pM and 0.199.
The matching figures for B3: 2.29 pM and 0.202.
In the same order, the values of B4 are 10.3 pM and 0.203.
Consider B5, for which the equilibrium dissociation constant (Kd) was determined as 9.11 pM and the Response came to 0.135.
B6 showed a dissociation constant (Kd) of 1.37 pM and a Response of 0.336.
The matching figures for B7: 9.28 pM and 0.256.
The matching figures for B8: 7.98 pM and 0.355.
In the same order, the values of B9 are 379 pM and 0.127.
Regarding B10, the Kd was 427 pM and the Response turned out to be 0.0668.
The matching figures for B11: 2.6 pM and 0.173.
In the same order, the values of B12 are 1.49 pM and 0.206.
With B13, the Kd is 1.91 pM and the Response is 0.113.
The matching figures for B14: 1.57 pM and 0.281.
For the molecule B15, the equilibrium dissociation constant (Kd) turned out to be 2.36 pM and the Response turned out to be 0.388.

Another experiment deals with P.1 Spike (SARS-CoV2).
As for B1, the dissociation constant Kd came to 8 pM and the Response was 0.177.
The matching figures for B2: 9.52 pM and 0.103.
With B3, the Kd was determined as 10.6 pM and the Response is 0.0784.
The matching figures for B4: 8.94 pM and 0.204.
With B5, the dissociation constant (Kd) is 8.79 pM and the Response turned out to be 0.123.
B6 came in with a dissociation constant (Kd) of 10.3 pM and a Response of 0.188.
The matching figures for B7: 2.97 pM and 0.109.
The matching figures for B8: 9.75 pM and 0.27.
In the same order, the values of B9 are 7.04 pM and 0.152.
As for B10, the equilibrium dissociation constant (Kd) is 8.72 pM and the Response came to 0.0396.
In the same order, the values of B11 are 11.2 pM and 0.17.
For B12, the equilibrium dissociation constant (Kd) was determined as 8.91 pM and the Response stood at 0.102.
In the same order, the values of B13 are 4.88 pM and 0.112.
With B14, the Kd is 8.9 pM and the Response was found to be 0.0795.
In turn, B15 returned a Kd of 7.93 pM and a Response of 0.35.
